Data reported in patent publication US10874724B2, “Enzymatic immunomodulation of solid tumors and uses thereof” (University of Houston System, priority 2015, dated 2020).

Key:
4T1 cells = experiment: Wound healing assay; assay type: cell-based; conditions: 10 μM Adenosine or 50 μM ADA or both; wound area at 48 hrs
Method: Briefly, 4T1 cells were cultured to confluence in 35 mm dishes in triplicates. 12 hrs later cell were rinsed with PBS and starved in low serum media (1.5 ml; 0.5%-0.1% serum in RPMI) overnight. […] Pictures were taken immediately of the wound area in phase contrast and 10× and another at 48 hrs. Wound area was calculated using imagej and plotted.

HT29 cells = experiment: Effect of cAdo on cell proliferation (WST 1); assay type: cell-based; conditions: cAdo at 10 μM and above, WST 1 after 5 days
Method: 10^4 cells were seeded in 96 well dish in 100 μl. 12 hrs later the cells were treated with […] and 50 μM of cAdo and the cells were later assayed for cell number quantitatively using WST 1 reagent after 5 days. Briefly 10 μl of WST1 reagent was added to each well. The cells were incubated for 4 hrs. OD was measured using microtiter plate reader at 460 nm.

[1] = Stability of mADA enzymatic activity in cell culture medium; assay type: physicochemical; conditions: culture medium of 4T1, MCF7 and T47D cells; supernatant after 24 h, 48 h and 72 h; even after 3 days
Method: 4T1, MCF7 and T47D cells (1×10^5) were grown in 96 wells culture dish.

[2] = Enzyme activity of mADA-His and mADA-Fc (Adenosine Deaminase Assay Kit); assay type: biochemical; conditions: supernatant media of transfected HEK293F cells; OD at 550 nm
Method: Enzyme activity of mADA-His and mADA-Fc was assayed with Adenosine Deaminase Assay Kit (BQ 014-EALD). Briefly the 180 μl of reagent 1 was added to 96-well plate. Followed by 5 μl of supernatant media obtained from HEK293F cells transfected with mADA-His or mADA-Fc. Later 90 μl of reagent was added to each well and incubated for 8 mins at 37° C. The OD was measured at 550 nm.

[3] = intramuscular injection; cited from earlier work

## Nc1ncnc2c1ncn2[C@@H]1O[C@H](CO)[C@@H](O)[C@H]1O [Ado, adenosine, reference compound]
4T1 cells
  Wound healing ability of 4T1 cells: marginally promoted wound healing

## Nc1nc(Cl)nc2c1ncn2[C@@H]1O[C@H](CO)[C@@H](O)[C@H]1O [cAdo, 2-chloro Ado]
HT29 cells
  Rate of cell proliferation: marginal increase

B1: mADA: recombinant purified mouse adenosine deaminase (protein, UniProt P03958 2-352, looked up)
Adenosine deaminase: AQTPAFNKPKVELHVHLDGAIKPETILYFGKKRGIALPADTVEELRNIIGMDKPLSLPGFLAKFDYYMPVIAGCREAIKRIAYEFVEMKAKEGVVYVEVRYSPHLLANSKVDPMPWNQTEGDVTPDDVVDLVNQGLQEGEQAFGIKVRSILCCMRHQPSWSLEVLELCKKYNQKTVVAMDLAGDETIEGSSLFPGHVEAYEGAVKNGIHRTVHAGEVGSPEVVREAVDILKTERVGHGYHTIEDEALYNRLLKENMHFEVCPWSSYLTGAWDPKTTHAVVRFKNDKANYSLNTDDPLIFKSTLDTDYQMTKKDMGFTEEEFKRLNINAAKSSFLPEEEKKELLERLYREYQ
[1]
  ADA enzyme activity in cell culture medium: retained its activity

B2: mADA-His: mADA with His tag expressed in HEK293F cells, purified with Ni-NTA column (protein, UniProt P03958 2-352, looked up)
Adenosine deaminase: AQTPAFNKPKVELHVHLDGAIKPETILYFGKKRGIALPADTVEELRNIIGMDKPLSLPGFLAKFDYYMPVIAGCREAIKRIAYEFVEMKAKEGVVYVEVRYSPHLLANSKVDPMPWNQTEGDVTPDDVVDLVNQGLQEGEQAFGIKVRSILCCMRHQPSWSLEVLELCKKYNQKTVVAMDLAGDETIEGSSLFPGHVEAYEGAVKNGIHRTVHAGEVGSPEVVREAVDILKTERVGHGYHTIEDEALYNRLLKENMHFEVCPWSSYLTGAWDPKTTHAVVRFKNDKANYSLNTDDPLIFKSTLDTDYQMTKKDMGFTEEEFKRLNINAAKSSFLPEEEKKELLERLYREYQ
modifications: His tag
[2]
  Enzyme activity in supernatant: enzymatically active

B3: ADA: Adenosine deaminase (EC 3.5.4.4), enzyme degrading Ado into inosine and ammonia (protein, UniProt P00813 2-363, looked up)
Adenosine deaminase: AQTPAFDKPKVELHVHLDGSIKPETILYYGRRRGIALPANTAEGLLNVIGMDKPLTLPDFLAKFDYYMPAIAGCREAIKRIAYEFVEMKAKEGVVYVEVRYSPHLLANSKVEPIPWNQAEGDLTPDEVVALVGQGLQEGERDFGVKARSILCCMRHQPNWSPKVVELCKKYQQQTVVAIDLAGDETIPGSSLLPGHVQAYQEAVKSGIHRTVHAGEVGSAEVVKEAVDILKTERLGHGYHTLEDQALYNRLRQENMHFEICPWSSYLTGAWKPDTEHAVIRLKNDQANYSLNTDDPLIFKSTLDTDYQMTKRDMGFTEEEFKRLNINAAKSSFLPEDEKRELLDLLYKAYGMPPSASAGQNL
4T1 cells
  Wound healing ability of 4T1 cells: did not alter the wound healing ability

B4: bADA: bovine adenosine deaminase; PEGylated bADA is FDA approved (protein, UniProt P56658 2-363, looked up)
Adenosine deaminase: AQTPAFNKPKVELHVHLDGAIKPETILYYGRKRGIALPADTPEELQNIIGMDKPLSLPEFLAKFDYYMPAIAGCREAVKRIAYEFVEMKAKDGVVYVEVRYSPHLLANSKVEPIPWNQAEGDLTPDEVVSLVNQGLQEGERDFGVKVRSILCCMRHQPSWSSEVVELCKKYREQTVVAIDLAGDETIEGSSLFPGHVKAYAEAVKSGVHRTVHAGEVGSANVVKEAVDTLKTERLGHGYHTLEDATLYNRLRQENMHFEVCPWSSYLTGAWKPDTEHPVVRFKNDQVNYSLNTDDPLIFKSTLDTDYQMTKNEMGFTEEEFKRLNINAAKSSFLPEDEKKELLDLLYKAYGMPSPASAEQCL
[3]
  Toxicity: not shown any toxicity
